Measurements published in the supplement of paper PMC9112550, “Optimization of the antimicrobial peptide Bac7 by deep mutational scanning” (BMC Biology, 2022).

Tested on: Escherichia coli TOP10
Test: shrunken log2 fold change of peptide-encoding DNA abundance (4.5 h post-induction vs induction); higher = less antimicrobial activity (less host growth inhibition)
Conditions: time post-induction: 4.5 h; library: site-saturation at positions 5, 18, 19, 20
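Also: peptides expressed intracellularly from a pBAD plasmid library in pooled LB shake-flask culture, induced with 0.3% L-arabinose, DNA abundance read by NGS, three biological replicates, DESeq2 with apeglm shrinkage.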

RRIRSRPPRLPRPRPRPSSFPRP
shrunken log2 fold change: -0.356

RRIRSRPPRLPRPRPRPSSYPRP
shrunken log2 fold change: -0.344

RRIRSRPPRLPRPRPRPSTGPRP
shrunken log2 fold change: -0.417

RRIRSRPPRLPRPRPRPSTVPRP
shrunken log2 fold change: -0.353

RRIRSRPPRLPRPRPRPSWCPRP
shrunken log2 fold change: -0.132

RRIRSRPPRLPRPRPRPSWLPRP
shrunken log2 fold change: -0.101

RRIRSRPPRLPRPRPRPSYRPRP
shrunken log2 fold change: -0.131

RRIRSRPPRLPRPRPRPTAVPRP
shrunken log2 fold change: 0.466

RRIRSRPPRLPRPRPRPTCDPRP
shrunken log2 fold change: 0.109

RRIRSRPPRLPRPRPRPTCHPRP
shrunken log2 fold change: 0.024

RRIRSRPPRLPRPRPRPTCNPRP
shrunken log2 fold change: 0.0589

RRIRSRPPRLPRPRPRPTCWPRP
shrunken log2 fold change: 1.09

RRIRSRPPRLPRPRPRPTFAPRP
shrunken log2 fold change: 0.232

RRIRSRPPRLPRPRPRPTFPPRP
shrunken log2 fold change: 0.0566

RRIRSRPPRLPRPRPRPTFSPRP
shrunken log2 fold change: 0.019

RRIRSRPPRLPRPRPRPTFVPRP
shrunken log2 fold change: -0.15

RRIRSRPPRLPRPRPRPTGFPRP
shrunken log2 fold change: -0.0473

RRIRSRPPRLPRPRPRPTGMPRP
shrunken log2 fold change: 0.0395

RRIRSRPPRLPRPRPRPTGQPRP
shrunken log2 fold change: 0.31

RRIRSRPPRLPRPRPRPTHFPRP
shrunken log2 fold change: -0.0655

RRIRSRPPRLPRPRPRPTHIPRP
shrunken log2 fold change: -0.165

RRIRSRPPRLPRPRPRPTILPRP
shrunken log2 fold change: -0.413

RRIRSRPPRLPRPRPRPTKCPRP
shrunken log2 fold change: -0.258

RRIRSRPPRLPRPRPRPTKFPRP
shrunken log2 fold change: 0.0549

RRIRSRPPRLPRPRPRPTMAPRP
shrunken log2 fold change: 0.173

RRIRSRPPRLPRPRPRPTMCPRP
shrunken log2 fold change: -0.0421

RRIRSRPPRLPRPRPRPTQDPRP
shrunken log2 fold change: 0.445

RRIRSRPPRLPRPRPRPTQHPRP
shrunken log2 fold change: 0.376

RRIRSRPPRLPRPRPRPTQMPRP
shrunken log2 fold change: 0.502

RRIRSRPPRLPRPRPRPTQNPRP
shrunken log2 fold change: 0.375

RRIRSRPPRLPRPRPRPTRCPRP
shrunken log2 fold change: 0.264

RRIRSRPPRLPRPRPRPTRKPRP
shrunken log2 fold change: 0.138

RRIRSRPPRLPRPRPRPTRNPRP
shrunken log2 fold change: 0.29

RRIRSRPPRLPRPRPRPTSEPRP
shrunken log2 fold change: 0.292

RRIRSRPPRLPRPRPRPTSLPRP
shrunken log2 fold change: 0.074

RRIRSRPPRLPRPRPRPTSTPRP
shrunken log2 fold change: -0.236

RRIRSRPPRLPRPRPRPTSYPRP
shrunken log2 fold change: -0.0485

RRIRSRPPRLPRPRPRPTVLPRP
shrunken log2 fold change: 0.0356

RRIRSRPPRLPRPRPRPTWKPRP
shrunken log2 fold change: 0.286

RRIRSRPPRLPRPRPRPTYAPRP
shrunken log2 fold change: 0.0244

RRIRSRPPRLPRPRPRPTYHPRP
shrunken log2 fold change: -0.492

RRIRSRPPRLPRPRPRPVACPRP
shrunken log2 fold change: 0.271

RRIRSRPPRLPRPRPRPVCPPRP
shrunken log2 fold change: 0.0554

RRIRSRPPRLPRPRPRPVCSPRP
shrunken log2 fold change: 0.0822

RRIRSRPPRLPRPRPRPVCVPRP
shrunken log2 fold change: 0.0943

RRIRSRPPRLPRPRPRPVDDPRP
shrunken log2 fold change: -0.14

RRIRSRPPRLPRPRPRPVDFPRP
shrunken log2 fold change: -0.0272

RRIRSRPPRLPRPRPRPVDSPRP
shrunken log2 fold change: -0.0776

RRIRSRPPRLPRPRPRPVEIPRP
shrunken log2 fold change: -0.0626

RRIRSRPPRLPRPRPRPVFDPRP
shrunken log2 fold change: 0.106

RRIRSRPPRLPRPRPRPVFQPRP
shrunken log2 fold change: -0.302

RRIRSRPPRLPRPRPRPVGSPRP
shrunken log2 fold change: 0.304

RRIRSRPPRLPRPRPRPVHIPRP
shrunken log2 fold change: -0.124

RRIRSRPPRLPRPRPRPVKSPRP
shrunken log2 fold change: -0.127

RRIRSRPPRLPRPRPRPVLFPRP
shrunken log2 fold change: -0.0544

RRIRSRPPRLPRPRPRPVLTPRP
shrunken log2 fold change: -0.0627

RRIRSRPPRLPRPRPRPVLYPRP
shrunken log2 fold change: 1.03

RRIRSRPPRLPRPRPRPVMFPRP
shrunken log2 fold change: -0.118

RRIRSRPPRLPRPRPRPVMLPRP
shrunken log2 fold change: -0.112

RRIRSRPPRLPRPRPRPVNEPRP
shrunken log2 fold change: -0.0746

RRIRSRPPRLPRPRPRPVPEPRP
shrunken log2 fold change: 0.563

RRIRSRPPRLPRPRPRPVPGPRP
shrunken log2 fold change: 0.137

RRIRSRPPRLPRPRPRPVPLPRP
shrunken log2 fold change: -0.0843

RRIRSRPPRLPRPRPRPVTIPRP
shrunken log2 fold change: -0.373

RRIRSRPPRLPRPRPRPVWHPRP
shrunken log2 fold change: 0.182

RRIRSRPPRLPRPRPRPVYPPRP
shrunken log2 fold change: -0.11

RRIRSRPPRLPRPRPRPWANPRP
shrunken log2 fold change: 0.0508

RRIRSRPPRLPRPRPRPWDNPRP
shrunken log2 fold change: 0.0157

RRIRSRPPRLPRPRPRPWDRPRP
shrunken log2 fold change: -0.0645

RRIRSRPPRLPRPRPRPWEAPRP
shrunken log2 fold change: 0.019

RRIRSRPPRLPRPRPRPWEGPRP
shrunken log2 fold change: -0.0466

RRIRSRPPRLPRPRPRPWFPPRP
shrunken log2 fold change: -0.331

RRIRSRPPRLPRPRPRPWFYPRP
shrunken log2 fold change: -0.172

RRIRSRPPRLPRPRPRPWHCPRP
shrunken log2 fold change: -0.403

RRIRSRPPRLPRPRPRPWHPPRP
shrunken log2 fold change: -0.125

RRIRSRPPRLPRPRPRPWHRPRP
shrunken log2 fold change: -0.024

RRIRSRPPRLPRPRPRPWIAPRP
shrunken log2 fold change: -0.181

RRIRSRPPRLPRPRPRPWIFPRP
shrunken log2 fold change: -0.14

RRIRSRPPRLPRPRPRPWIPPRP
shrunken log2 fold change: -0.119

RRIRSRPPRLPRPRPRPWIQPRP
shrunken log2 fold change: -0.00956

RRIRSRPPRLPRPRPRPWKNPRP
shrunken log2 fold change: -0.0508

RRIRSRPPRLPRPRPRPWKRPRP
shrunken log2 fold change: -0.000813

RRIRSRPPRLPRPRPRPWLWPRP
shrunken log2 fold change: 1.45

RRIRSRPPRLPRPRPRPWMKPRP
shrunken log2 fold change: -0.00765

RRIRSRPPRLPRPRPRPWPCPRP
shrunken log2 fold change: 0.134

RRIRSRPPRLPRPRPRPWPKPRP
shrunken log2 fold change: 0.228

RRIRSRPPRLPRPRPRPWQDPRP
shrunken log2 fold change: -0.136

RRIRSRPPRLPRPRPRPWQFPRP
shrunken log2 fold change: 0.0527

RRIRSRPPRLPRPRPRPWQQPRP
shrunken log2 fold change: 0.179

RRIRSRPPRLPRPRPRPWSFPRP
shrunken log2 fold change: 0.0324

RRIRSRPPRLPRPRPRPWSWPRP
shrunken log2 fold change: 0.405

RRIRSRPPRLPRPRPRPWVWPRP
shrunken log2 fold change: 0.39

RRIRSRPPRLPRPRPRPWVYPRP
shrunken log2 fold change: -0.14

RRIRSRPPRLPRPRPRPWWLPRP
shrunken log2 fold change: 0.0261

RRIRSRPPRLPRPRPRPWYAPRP
shrunken log2 fold change: -0.253

RRIRSRPPRLPRPRPRPYAKPRP
shrunken log2 fold change: -0.123

RRIRSRPPRLPRPRPRPYARPRP
shrunken log2 fold change: -0.351

RRIRSRPPRLPRPRPRPYEEPRP
shrunken log2 fold change: -0.932

RRIRSRPPRLPRPRPRPYEKPRP
shrunken log2 fold change: -1.08

RRIRSRPPRLPRPRPRPYHFPRP
shrunken log2 fold change: -1.8

RRIRSRPPRLPRPRPRPYHSPRP
shrunken log2 fold change: -0.181

RRIRSRPPRLPRPRPRPYIKPRP
shrunken log2 fold change: -0.234

RRIRSRPPRLPRPRPRPYIPPRP
shrunken log2 fold change: -1.28

RRIRSRPPRLPRPRPRPYKAPRP
shrunken log2 fold change: -0.0488

RRIRSRPPRLPRPRPRPYKLPRP
shrunken log2 fold change: -0.399

RRIRSRPPRLPRPRPRPYMAPRP
shrunken log2 fold change: -0.539

RRIRSRPPRLPRPRPRPYMSPRP
shrunken log2 fold change: -0.355

RRIRSRPPRLPRPRPRPYPCPRP
shrunken log2 fold change: 0.0185

RRIRSRPPRLPRPRPRPYQEPRP
shrunken log2 fold change: -0.157

RRIRSRPPRLPRPRPRPYQKPRP
shrunken log2 fold change: -0.122

RRIRSRPPRLPRPRPRPYQPPRP
shrunken log2 fold change: -0.161

RRIRSRPPRLPRPRPRPYRGPRP
shrunken log2 fold change: -0.131

RRIRSRPPRLPRPRPRPYSRPRP
shrunken log2 fold change: -0.00979

RRIRSRPPRLPRPRPRPYSWPRP
shrunken log2 fold change: -0.244

RRIRSRPPRLPRPRPRPYTKPRP
shrunken log2 fold change: -0.202

RRIRSRPPRLPRPRPRPYTSPRP
shrunken log2 fold change: -0.14

RRIRSRPPRLPRPRPRPYVDPRP
shrunken log2 fold change: -0.594

RRIRSRPPRLPRPRPRPYVEPRP
shrunken log2 fold change: -0.442

RRIRSRPPRLPRPRPRPYYRPRP
shrunken log2 fold change: -0.0115

RRIRSRPPRLPRPRPRPYYWPRP
shrunken log2 fold change: -0.00332

RRIRTRPPRLPRPRPRPACGPRP
shrunken log2 fold change: 0.282

RRIRTRPPRLPRPRPRPACRPRP
shrunken log2 fold change: 0.206

RRIRTRPPRLPRPRPRPADCPRP
shrunken log2 fold change: -0.082

RRIRTRPPRLPRPRPRPADMPRP
shrunken log2 fold change: -0.431

RRIRTRPPRLPRPRPRPAECPRP
shrunken log2 fold change: -0.112

RRIRTRPPRLPRPRPRPAGPPRP
shrunken log2 fold change: -0.257

RRIRTRPPRLPRPRPRPAIYPRP
shrunken log2 fold change: -0.372

RRIRTRPPRLPRPRPRPAKKPRP
shrunken log2 fold change: 0.00555

RRIRTRPPRLPRPRPRPAMWPRP
shrunken log2 fold change: 0.35

RRIRTRPPRLPRPRPRPANDPRP
shrunken log2 fold change: -0.116

RRIRTRPPRLPRPRPRPAPAPRP
shrunken log2 fold change: 0.463

RRIRTRPPRLPRPRPRPAPQPRP
shrunken log2 fold change: 0.0544

RRIRTRPPRLPRPRPRPAQKPRP
shrunken log2 fold change: -0.00259

RRIRTRPPRLPRPRPRPASDPRP
shrunken log2 fold change: -0.141

RRIRTRPPRLPRPRPRPASMPRP
shrunken log2 fold change: -0.212

RRIRTRPPRLPRPRPRPATQPRP
shrunken log2 fold change: 1.54

RRIRTRPPRLPRPRPRPATRPRP
shrunken log2 fold change: 0.0996

RRIRTRPPRLPRPRPRPATTPRP
shrunken log2 fold change: -0.181

RRIRTRPPRLPRPRPRPAVKPRP
shrunken log2 fold change: 0.106

RRIRTRPPRLPRPRPRPAWEPRP
shrunken log2 fold change: 0.174

RRIRTRPPRLPRPRPRPAWIPRP
shrunken log2 fold change: -0.27

RRIRTRPPRLPRPRPRPAWNPRP
shrunken log2 fold change: -0.0659

RRIRTRPPRLPRPRPRPCCEPRP
shrunken log2 fold change: -0.105

RRIRTRPPRLPRPRPRPCEFPRP
shrunken log2 fold change: -0.258

RRIRTRPPRLPRPRPRPCFCPRP
shrunken log2 fold change: -0.259

RRIRTRPPRLPRPRPRPCKVPRP
shrunken log2 fold change: -0.233

RRIRTRPPRLPRPRPRPCLAPRP
shrunken log2 fold change: -0.307

RRIRTRPPRLPRPRPRPCNHPRP
shrunken log2 fold change: -0.214

RRIRTRPPRLPRPRPRPCPRPRP
shrunken log2 fold change: -0.13

RRIRTRPPRLPRPRPRPCPTPRP
shrunken log2 fold change: 0.0552
